Laboratory results taken from publication PMC3678129.

Substrate: CCn1c(=NN=c2sc3cc(S(=O)(=O)O)ccc3n2CC)sc2cc(S(=O)(=O)O)ccc21
Assay: purified protein
Details: H2O2 25 mM (saturating), no added Ca2+, 100 mM Tris-HCl pH 7.0

B1: Euphorbia characias latex peroxidase (ELP) (Euphorbia characias) (protein)
chain: QTKPPIVNGLSWTFYKSSCPKVESIIQKELKKLFKKDVEQAAGLLRLHFHDCFVLGCDGSVLLNGSAGGPSEQSELPNLSLRKQAFKIVNDLRALVHKECGPVVSCSDIVAIAARDSVVLTGGPKYDVPLGRRDGVKFAEVNATFEHLVGPTANVTTILAKLARKGLDTTDAVSLSGGHTIGIGHCTSFTERLYPSQDPTLDKTFANNLKRTCPNVNTENSTFLDLRTPNEFDNRYYVDLMNRQGLFTSDQDLYTDKRTRQIVIDFAVNQTLFYEKFIIGMIKMGQLEVVTGNQGEIRNDCSFRNSDNYLVSVTDEESGSSSELR
- Km: 550 ± 20 µM
- kcat: 170 ± 11 s⁻¹
- kcat/Km: 309000 M⁻¹ s⁻¹
